# B1: recombinant mouse GPIHBP1 (mGPIHBP1) (natural protein)
# chain: QEDGDADPEPENYNYDDDDDEEEEEETNMIPGSRDRAPLQCYFCQVLHSGESCNQTQSCSSSKPFCITLVSHSGTDKGYLTTYSMWCTDTCQPIIKTVGGTQMTQTCCQSTLCNIPPWQNPQVQNPLGGRADSPLESGTRHPQGGKFSHPQVVKAAHPQSDGANLPKSGKANQPQG
# Molecular target: T1, recombinant human lipoprotein lipase (hLPL) (human, UniProt P06858 28-475)
# T1 sequence: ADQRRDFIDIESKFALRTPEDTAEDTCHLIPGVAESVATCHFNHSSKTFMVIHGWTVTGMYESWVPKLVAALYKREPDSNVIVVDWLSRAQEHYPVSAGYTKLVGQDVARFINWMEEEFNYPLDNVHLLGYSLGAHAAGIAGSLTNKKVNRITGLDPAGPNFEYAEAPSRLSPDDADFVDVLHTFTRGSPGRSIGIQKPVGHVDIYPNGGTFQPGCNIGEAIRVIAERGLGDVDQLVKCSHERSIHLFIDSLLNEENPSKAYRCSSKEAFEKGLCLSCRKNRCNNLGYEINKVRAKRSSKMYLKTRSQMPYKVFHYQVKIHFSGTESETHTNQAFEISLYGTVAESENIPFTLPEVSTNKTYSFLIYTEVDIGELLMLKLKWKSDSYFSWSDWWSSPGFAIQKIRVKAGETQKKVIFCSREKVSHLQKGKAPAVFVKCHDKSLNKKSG
# Test: pull-down
binder,measurement,value
B1,binding result,binds
